Data set [1] addresses recombinant human ADAM10 (amino residues 18-672, Cat. No 936-AD) (human) (UniProt O14672).
In data set [2] the target is 5 inhibiting periplasm out of 27 periplasm tested for ADAM10.
Data set [3] concerns the target 6 activating periplasm out of 27 periplasm tested for ADAM10.
Data set [4] concerns the target 7 inhibiting periplasm out of 31 periplasm tested for ADAM9.
Data set [5] addresses 9 activating periplasm out of 31 periplasm tested for ADAM9.

Where a chain is given by its changes, count along the chain named.

B1: Nanobody 33-D1 (VHH)
VHH: EVQLVESGGGLVQAGDSLRLSCAATGRTFSSDAMGWFRQAPGKERAFVAGINYNSVYRYYTDSVEGRFTISRDNAKNTVYLQMNSLKPEDTAVYYCAADSDYYSLIGGRPVNYWGQGTQVTVSS
On to B1, for which the Percent activity compared to no periplasm (50x excess) in data set [1] was found to be 85.6 percent.

B2: recombinant human ADAM10 (amino residues 18-672, Cat. No 936-AD) (protein)
chain: GGQYGNPLNKYIRHYEGLSYNVDSLHQKHQRAKRAVSHEDQFLRLDFHAHGRHFNLRMKRDTSLFSDEFKVETSNKVLDYDTSHIYTGHIYGEEGSFSHGSVIDGRFEGFIQTRGGTFYVEPAERYIKDRTLPFHSVIYHEDDINYPHKYGPQGGCADHSVFERMRKYQMTGVEEVTQIPQEEHAANGPELLRKKRTTSAEKNTCQLYIQTDHLFFKYYGTREAVIAQISSHVKAIDTIYQTTDFSGIRNISFMVKRIRINTTADEKDPTNPFRFPNIGVEKFLELNSEQNHDDYCLAYVFTDRDFDDGVLGLAWVGAPSGSSGGICEKSKLYSDGKKKSLNTGIITVQNYGSHVPPKVSHITFAHEVGHNFGSPHDSGTECTPGESKNLGQKENGNYIMYARATSGDKLNNNKFSLCSIRNISQVLEKKRNNCFVESGQPICGNGMVEQGEECDCGYSDQCKDECCFDANQPEGRKCKLKPGKQCSPSQGPCCTAQCAFKSKSEKCRDDSDCAREGICNGFTALCPASDPKPNFTDCNRHTQVCINGQCAGSICEKYGLEECTCASSDGKDDKELCHVCCMKKMDPSTCASTGSVQWSRHFSGRTITLQPGSPCNDFRGYCDVFMRCRLVDADGPLARLKKAIFSPELYENIAE
Regarding B2, the “ADAM protease assay, fluorogenic peptide substrate ES003, periplasms containing Nanobodies” value is 5 inhibited significantly (less than 40% residual activity) in data set [2] and 6 activated significantly (more than 200% initial activity) in data set [3].

B3: Nanobody 39-C8 (VHH)
VHH: EMQLVESGGGLVQTGGSLRLSCAASGRTFTSYCVGWWRQAPGKERDVVAAITRGSNSTDYVDSVKGRFTISRDNAENTVYLQMNSLKPEDTAVYYCAADINCRNLYTGRPEYWGQGTQVTVSS
B3: the Percent activity compared to no periplasm (50x excess) in data set [1] came out at 194 percent.

B4: Nanobody 33-A1 (VHH)
VHH: EVQLVESGGGLVQAGGSLRLSCAASGDTFSRYSMGWFRQAPGKEREFVVYITRSGRTTYYQDSVKGRFTISRDNAKNTVYLQMNSLKPEDTAVYYCAAMRSGNVRYPERYDYWGQGTQVTVSS
On to B4, for which, in data set [1], the Percent activity compared to no periplasm (50x excess) amounted to 86.5 percent.

B5: Nanobody 39-D8, E8 (VHH)
VHH: EVQLVESGGGLVRARGSLRLSCAASGGTFSRYAMGWFRQAPGKEREFVAAISRSGGNTYFTESVKGRFTMSRDNAKNTVYLQMNSLKPEDTAVYYCAARSAAVYTTTVYLVDFEYNYWGQGTQVTVSS
In the case of B5, in data set [1], the Percent activity compared to no periplasm (50x excess) turned out to be 76.4 percent.

B6: Nanobody 39-D1 (VHH)
VHH: KVQLVESGGGLVQAGGSLRLSCAASGNIFINNAVGWYRQAPGKQREMVAAMLSGGSTNYADSVKGRFTISRDNAKNTVYLQMNSLKPEDTAVYYCNVQVNGTWARWGQGTQVTVSS
In the case of B6, the Percent activity compared to no periplasm (50x excess) in data set [1] is 84.6 percent.

B7: Nanobody 39-F1 (VHH)
VHH: EVQLVESGGGLVQAGGSLRLSCAASERIFSTYFMGWFRQAPGKEREFVAFISGNGGSTDYADSVKGRFAISRDNVKNTLYLQMSSLKPDDTAVYYCAVAGRQIKSTWGYWGQGTQVTVSS
Consider B7, for which the Percent activity compared to no periplasm (50x excess) in data set [1] came out at 144 percent.

B8: Nanobody 32-E1, E6, 39-A2 (VHH)
VHH: B7 VHH with G108D
As for B8, the Percent activity compared to no periplasm (50x excess) in data set [1] amounted to 163 percent.

B9: recombinant human ADAM9 (amino residues 1-697, R&D Systems, Cat. No. 939-AD) (protein)
chain: AARPGFQQTSHLSSYEIITPWRLTRERREAPRPYSKQVSYVIQAEGKEHIIHLERNKDLLPEDFVVYTYNKEGTLITDHPNIQNHCHYRGYVEGVHNSSIALSDCFGLRGLLHLENASYGIEPLQNSSHFEHIIYRMDDVYKEPLKCGVSNKDIEKETAKDEEEEPPSMTQLLRRRRAVLPQTRYVELFIVVDKERYDMMGRNQTAVREEMILLANYLDSMYIMLNIRIVLVGLEIWTNGNLINIVGGAGDVLGNFVQWREKFLITRRRHDSAQLVLKKGFGGTAGMAFVGTVCSRSHAGGINVFGQITVETFASIVAHELGHNLGMNHDDGRDCSCGAKSCIMNSGASGSRNFSSCSAEDFEKLTLNKGGNCLLNIPKPDEAYSAPSCGNKLVDAGEECDCGTPKECELDPCCEGSTCKLKSFAECAYGDCCKDCRFLPGGTLCRGKTSECDVPEYCNGSSQFCQPDVFIQNGYPCQNNKAYCYNGMCQYYDAQCQVIFGSKAKAAPKDCFIEVNSKGDRFGNCGFSGNEYKKCATGNALCGKLQCENVQEIPVFGIVPAIIQTPSRGTKCWGVDFQLGSDVPDPGMVNEGTKCGAGKICRNFQCVDASVLNYDCDVQKKCHGHGVCNSNKNCHCENGWAPPNCETKGYGGSVDSGPTYNEMNTALRD
For the molecule B9, the “ADAM protease assay, fluorogenic peptide substrate ES003, periplasms containing Nanobodies” value in data set [4] was 7 showed significant inhibition; in data set [5], 9 were significantly activating.

B10: Nanobody 39-B1 (VHH)
VHH: EVQLVESGGGLVQAGGSLRLSCARSGRISNINIMAWYRQAPGKTRDMVAAIIGDSTNYADSVKGRFTISRDNAKNTVYLHMNRLKPEDTGVYYCKISGVDWGQGTQVTVSS
Turning to B10, in data set [1], the Percent activity compared to no periplasm (50x excess) amounted to 67.1 percent.

These data come from patent US20100150939A1.
